Assay results published in patent US20250332297A1, “DLL3-SPECIFIC BINDING CONSTRUCTS AND THEIR USE IN RADIOTHERAPY” (MOLECULAR PARTNERS AG, priority 2024, published 2025).

Assays:
[1] = biological target: T1, Human DLL3 expressed on cells (HEK293T-hDLL3, NCI-H82, SHP-77, MC38-hDLL3) (human, UniProt Q9NYJ7 27-618); experiment: flow cytometry titration on HEK293T-hDLL3 cells, with HSA
T1 construct: also called DLL3 endogenously expressed on human cells
T1 sequence: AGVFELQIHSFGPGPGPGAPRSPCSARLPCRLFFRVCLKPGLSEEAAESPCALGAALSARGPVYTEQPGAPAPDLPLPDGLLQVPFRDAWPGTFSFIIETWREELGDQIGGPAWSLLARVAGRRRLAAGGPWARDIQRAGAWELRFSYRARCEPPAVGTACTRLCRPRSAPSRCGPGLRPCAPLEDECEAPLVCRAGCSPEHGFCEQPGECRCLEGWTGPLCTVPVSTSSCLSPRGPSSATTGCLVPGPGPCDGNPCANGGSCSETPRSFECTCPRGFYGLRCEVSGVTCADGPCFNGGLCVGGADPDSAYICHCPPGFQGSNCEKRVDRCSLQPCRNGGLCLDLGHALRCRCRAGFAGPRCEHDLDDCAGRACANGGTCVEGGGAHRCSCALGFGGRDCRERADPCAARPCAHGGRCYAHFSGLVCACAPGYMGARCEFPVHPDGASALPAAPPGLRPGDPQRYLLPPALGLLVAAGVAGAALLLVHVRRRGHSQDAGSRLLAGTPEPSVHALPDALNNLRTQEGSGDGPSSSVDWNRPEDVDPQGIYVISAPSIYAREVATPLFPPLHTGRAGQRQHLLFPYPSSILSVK
Description: (§1) Cell binding titration assays were performed for selected His-tagged single domain (1 D) and two domain (2D) designed ankyrin repeat proteins to determine binding to human DLL3 expressed on HEK293T-huDLL3 cells in absence and presence of human serum albumin. […] HEK293T-hDLL3 cells are HEK293T cells that were stably transfected to express human DLL3 on their surface.
(§2) In brief, 1×10⁵ cells/well were resuspended in 100 μl DARPin dilution (500 nM, 1:5 serial diluted) and incubated for 1 h at 4° C. Cells were washed twice with PBS and resuspended in 100 μl anti-DARPin antibody (rabbit anti-DARPin 1.4.8) and LIVE/DEAD fixable cell stain (1:1000, Thermo Fisher #L34957). This step was performed in absence and presence of […] Human Serum Albumin (CSL Behring #150570). After incubation and washing, cells were incubated with detection antibody for 30 minutes (Goat […] IgG (H+L), AF647, Thermo Fisher #21445). Cells were fixed (Paraformaldehyde Solution, LucernaChem) and acquired at Attune N×T (Thermo Life Technologies). Raw fcs files were exported and analyzed using FlowJo software. MFI values of live AF647-positive cells were exported from FlowJo and plotted using GraphPad Prism software.

[2] = biological target: T1, Human DLL3 expressed on cells …; experiment: flow cytometry titration on HEK293T-hDLL3 cells, without HSA
Description: as §1, §2

[3] = biological target: T2, human serum albumin (human, UniProt P02768 25-609); experiment: SPR (Bruker Sierra SPR-32), HSA on chip, DARPin as analyte, 1:1 Langmuir fit
T2 construct: also called HSA
Description: (§3) Similarly, a SPR assay was used to determine the binding kinetics to human or mouse serum albumin. […] All analytes (3-fold dilution ranging from 1000-12.35 nM) were injected in succession for 240 s (25 μl/min) and dissociation was recorded for 600 s (25 μl/min).

[4] = biological target: T3, mouse serum albumin (mouse, UniProt P07724 25-608); experiment: SPR (Bruker Sierra SPR-32), MSA on chip, DARPin as analyte, 1:1 Langmuir fit
T3 construct: also called MSA
Description: as §3

[5] = biological target: T4, hDLL3 ECD-Avi-Fckih (biotinylated extracellular domain of human DLL3, residues 27 to 466, Avi-tag, 3C site, … (human, UniProt Q9NYJ7 27-466, biotinylated at the Avi-tag)); experiment: SPR (ProteOn), biotinylated hDLL3 ECD-Avi-Fckih on chip, DARPin as analyte, 1:1 Langmuir fit
T4 construct: The make-up of the second Fc chain of the knob-into-hole pair is not described; also called bio-DLL3; recombinant human DLL3; not shown: Avi-tag, 3C protease recognition site and Fc knob into hole
T4 sequence: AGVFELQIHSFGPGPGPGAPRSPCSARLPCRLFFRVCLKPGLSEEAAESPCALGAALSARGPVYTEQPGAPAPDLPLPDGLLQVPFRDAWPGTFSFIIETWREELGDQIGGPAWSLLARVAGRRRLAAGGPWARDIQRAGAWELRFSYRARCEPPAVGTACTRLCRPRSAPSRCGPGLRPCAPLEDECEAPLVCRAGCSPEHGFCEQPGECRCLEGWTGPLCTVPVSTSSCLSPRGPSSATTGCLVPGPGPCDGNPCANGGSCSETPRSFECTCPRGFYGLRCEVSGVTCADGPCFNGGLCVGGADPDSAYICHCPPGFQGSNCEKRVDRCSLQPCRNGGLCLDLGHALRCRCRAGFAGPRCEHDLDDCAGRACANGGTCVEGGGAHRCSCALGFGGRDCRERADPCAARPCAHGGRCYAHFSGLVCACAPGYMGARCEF
Description: Kinetic binding parameters and binding affinities of two domain (2D) ankyrin repeat proteins comprising an ankyrin repeat domain with binding specificity for DLL3 and an ankyrin repeat domain with binding specificity for serum albumin were determined by surface plasmon resonance (SPR) multi-trace analysis.
In brief, a SPR assay was used to determine the binding kinetics to the target human DLL3. The data were generated using BioRad ProteOn instrument in SPR running buffer (PBS, pH 7.4 containing 0.005% Tween 20®). […] The chip was coated with biotinylated target (bio-DLL3) to reach a signal intensity of 1780 RU. […] Each injection was followed by a regeneration step with 16 mM H₃PO₄ for 18 s. […] The bio-DLL3 target used was as described in U.S. 63/550,951, i.e. the extracellular domain (ECD) of human DLL3 protein (Q9NYJ7, Gene ID: 10683, residues 27 to 466; purchased from Evitria) linked via an Avi-tag (for site-directed biotinylation), followed by a 3C protease recognition site, to a Fc knob into hole (hDLL3 ECD-Avi-Fcₖᵢₕ).

[6] = Pharmacokinetic analysis in WT BALBc mice (serum, ELISA); assay type: in vivo, mouse; conditions: 1 mg/kg i.v.
Text: The pharmacokinetic (PK) properties of lead-labelled DARPin (MAM160, MAM279, MAM282, MAM283) conjugates were investigated in mice, including to determine the terminal half-life (or serum half-life) of these conjugates.
In brief, DARPins MAM279, MAM283, MAM160 and MAM282 were conjugated to the chelator DOTAM, via a C-terminal Cysteine containing tag and a connector, as described in Example 3. The conjugates were then labelled with natural lead (Pb). The protein components of the conjugates corresponded to SEQ ID NOs: 15 to 18, respectively. These lead-labelled DARPin conjugates were injected i.v. at 1 mg/kg into WT BALBc mice. Serum was collected 2 min, 10 min, 30 min, 1 h, 4 h, 24 h, 48 h, and 72 h post-injection. DARPins were detected and measured by ELISA. The data were expressed as the DARPin concentration in serum (nmol/L).
In brief, lead-labelled MAM279 conjugate, as described in Example 13, was injected i. at 0.1 mg/kg or at 1 mg/kg into the tail vein of WT BALBc mice. Serum was collected 2 min, 10 min, 30 min, 1 h, 4 h, 24 h, 48 h, and 72 h post-injection for MAM279 conjugate injected at 1 mg/kg, and 2 min, 30 min, 4 h, 24 h, 30 h, 48 h, 72 h, 96 h, and 168 h post-injection for MAM279 conjugate injected at 0.1 mg/kg. DARPins were detected and measured by ELISA. The data were expressed as the DARPin concentration in serum (nmol/L).
In brief, natural lead-labelled MAM279 conjugate, as described in Example 13, was injected i.v. at different doses (0.001 mg/kg, 0.01 mg/kg, 0.1 mg/kg, or 1 mg/kg) into the tail vein of WT BALBc mice. Similarly, unconjugated Rova was injected iv. at 1 mg/kg into the tail vein of WT BALBc mice. Serum was collected 2 min, 10 min, 30 min, 1 h, 4 h, 24 h, 48 h, and 72 h post-injection for MAM279 conjugate injected at 1 mg/kg, and 2 min, 30 min, 4 h, 24 h, 30 h, 48 h, 72 h, 96 h, and 168 h post-injection for MAM279 conjugate injected at 0.1 mg/kg, 0.01 mg/kg and 0.001 mg/kg. Serum was collected 2 min, 30 min, 4 h, 24 h, 30 h, 48 h, 72 h, 96 h, and 168 h post-injection for Rova antibody injected at 1 mg/kg. DARPins and Rova were detected and measured by ELISA. Rova PK characteristics were calculated with time points between 4 h and 168 h and MAM279 conjugate PK characteristics were calculated with time points between 4 h and 72 h. The data were expressed as the DARPin or Rova concentration in serum (nmol/L). Results are shown in FIGS. 19A and 19B and Table 22.

[7] = Dose response finding (tolerability) in WT CD1 mice

T3 sequence (P07724 25-608 limits assumed): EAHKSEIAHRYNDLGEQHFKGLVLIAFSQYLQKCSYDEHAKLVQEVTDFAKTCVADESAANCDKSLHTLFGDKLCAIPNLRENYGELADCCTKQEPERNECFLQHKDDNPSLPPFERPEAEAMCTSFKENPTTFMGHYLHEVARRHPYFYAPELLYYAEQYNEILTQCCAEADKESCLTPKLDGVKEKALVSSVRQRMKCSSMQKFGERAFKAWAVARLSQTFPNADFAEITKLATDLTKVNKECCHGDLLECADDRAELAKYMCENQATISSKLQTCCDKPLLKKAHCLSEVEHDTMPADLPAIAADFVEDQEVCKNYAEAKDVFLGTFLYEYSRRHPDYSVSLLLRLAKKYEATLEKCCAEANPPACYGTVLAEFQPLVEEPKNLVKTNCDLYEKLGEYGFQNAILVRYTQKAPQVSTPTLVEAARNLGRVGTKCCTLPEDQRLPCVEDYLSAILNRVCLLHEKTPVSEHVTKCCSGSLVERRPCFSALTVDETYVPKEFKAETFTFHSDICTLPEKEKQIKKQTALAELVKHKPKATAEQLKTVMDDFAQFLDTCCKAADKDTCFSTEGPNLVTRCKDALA

B1: MAM160 (two domain ankyrin repeat protein, N-terminal His6-TEV tag) (designed binder)
chain: MRGSHHHHHHENLYFQDLGKKLLEAARAGQDDEVRELLKAGADVNAKDYFSHTPLHLAARNGHLKIVEVLLKAGADVNAKDFAGKTPLHLAADAGHLEIVEVLLKAGADVNAQDIFGKTPADIAADAGHEDIAEVLQKAAGSPTPTPTTPTPTPTTPTPTPTGSDLGTKLLSAAADGQDDEVRELLQAGADVNAKDLFGYTPLHLAAWRGHLEIVEVLLEAGADVNAKDAAGLTPLHLAAWFGHLEIVEVLLEAGADVNAQDVQGVTPADLAAKEGHEDIAEVLQQAA
notes: also called 2D DARPin
[1]
  EC50: 0.0366 µM
[2]
  EC50: 0.0189 µM
[3]
  Kd: 0.0959 µM
  koff: 0.0105 s⁻¹
  kon: 110000 M⁻¹ s⁻¹
[4]
  Kd: 0.336 µM
  koff: 0.0271 s⁻¹
  kon: 80400 M⁻¹ s⁻¹
[5]
  Kd: 0.00199 µM
  koff: 2.01e-05 s⁻¹
  kon: 10100 M⁻¹ s⁻¹

B2: MAM283 conjugate: SEQ ID NO: 16 conjugated to DOTAM-maleimide, labelled with Pb-212 (natural lead in PK studies) (conjugate)
chain: GSDLGKKLLEAARAGQDDEVRELLKAGADVNAKDYFSHTPLHLAARNGHLKIVEVLLKAGADVNAKDFAGKTPLHLAADAGHLEIVEVLLKAGADVNAQDIFGKTPADIAADAGHEDIAEVLQKAAGSPTPTPTTPTPTPTTPTPTPTGSDLGKKLLAAAADGQDDEVRELLQAGADVNAKDLFGYTPLHLAAWRGHLEIVEVLLEAGADVNAKDAAGETPLHLAAWFGHLEIVEVLLEAGADVNAQDVQGKTPADLAAKEGHEDIAEVLQQAAGSGSC
modifications: DOTAM-maleimide, Pb-212 label; Ankyrin repeat protein with tag (GS-MAM283-tag)
[6]
  serum half-life: 12.7 h
[7]; Pb-212 labelled conjugate injected once at 10 μCi, 20 μCi and 30 μCi i.v., WT CD1 mice
  appearance of animals: animals appeared healthy and active
[7]; Pb-212 labelled conjugate injected once at 10 μCi, 20 μCi and 30 μCi, WT CD1 mice, recovered within up to about 10 days
  body weight (BW) change: Minimal weight loss
[7]; Pb-212 labelled conjugate, injected dose of 60 μCi, WT CD1 mice
  toxicity: Toxicity was observed
[7]; within up to 28 days after injection of 10 μCi, 20 μCi and 30 μCi doses (data not shown)
  hematology profile (white blood cells, lymphocytes, monocytes, neutrophils): complete recovery
